According to paper PMC314469, “Protein Interaction Networks by Proteome Peptide Scanning” (PLoS Biology, 2004):

T1: Boi1 SH3 (BOI1_YEAST), P38041
T1 chain: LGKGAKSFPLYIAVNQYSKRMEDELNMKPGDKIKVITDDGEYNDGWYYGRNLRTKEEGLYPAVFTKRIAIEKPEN

T2: Boi2 SH3 (BOI2_YEAST), P39969
T2 chain: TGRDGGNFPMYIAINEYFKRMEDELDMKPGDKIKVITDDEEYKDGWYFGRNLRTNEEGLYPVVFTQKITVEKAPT

T3: Myo5 SH3 (MYO5_YEAST), Q04439
T3 chain: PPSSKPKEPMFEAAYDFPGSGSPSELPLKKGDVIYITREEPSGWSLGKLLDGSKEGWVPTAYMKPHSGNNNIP

T4: Rvs167 SH3 (RV167_YEAST), P39743
T4 chain: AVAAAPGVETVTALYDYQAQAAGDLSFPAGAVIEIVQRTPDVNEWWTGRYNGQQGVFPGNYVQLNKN

T5: Yfr024 SH3 (LSB3_YEAST), P43603
T5 chain: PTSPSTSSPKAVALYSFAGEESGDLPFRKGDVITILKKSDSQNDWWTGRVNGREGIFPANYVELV

T6: Yhr016c SH3 (YSC84_YEAST), P32793
T6 chain: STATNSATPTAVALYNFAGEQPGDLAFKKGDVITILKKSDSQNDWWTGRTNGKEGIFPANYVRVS


Experiments:
Assay in all cases: SPOT array
[1] = target: T1, Boi1 SH3 (BOI1_YEAST), P38041
[2] = target: T2, Boi2 SH3 (BOI2_YEAST), P39969
[3] = target: T3, Myo5 SH3 (MYO5_YEAST), Q04439
[4] = target: T4, Rvs167 SH3 (RV167_YEAST), P39743
[5] = target: Sho1 SH3 (SHO1_YEAST), P40073
Sho1 SH3 (SHO1_YEAST), P40073, sequence (P40073 295-366): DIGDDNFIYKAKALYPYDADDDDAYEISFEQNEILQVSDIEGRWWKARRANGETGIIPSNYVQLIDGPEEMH

[6] = target: T5, Yfr024 SH3 (LSB3_YEAST), P43603
[7] = target: T6, Yhr016c SH3 (YSC84_YEAST), P32793

| Binder | normalised SPOT signal, Boehringer light units (BLU); mean over the file's lines of this peptide [1] | normalised SPOT signal, Boehringer light units (BLU); mean over the file's lines of this peptide [2] | normalised SPOT signal, Boehringer light units (BLU); mean over the file's lines of this peptide [3] | normalised SPOT signal, Boehringer light units (BLU); mean over the file's lines of this peptide [4] | normalised SPOT signal, Boehringer light units (BLU); mean over the file's lines of this peptide [5] | normalised SPOT signal, Boehringer light units (BLU); mean over the file's lines of this peptide [6] | normalised SPOT signal, Boehringer light units (BLU); mean over the file's lines of this peptide [7] |
| --- | --- | --- | --- | --- | --- | --- | --- |
| KPAGRPIPPAPTHY [YGR058W 101-114] | 90.4 | 0 | 189 | 2260 | 115 | 4480 | 2860 |
| KRRSKSLPITPKSI [YIL045W 157-170] | 585 | 6.2 | 921 | 125 | 19400 | 559 | 58.1 |
| KRKAKAPPPPPPPP [YDL146W 469-482] | 1100 | 22.4 | 4030 | 31.2 | 17.5 | 19.3 | 11.5 |
| KQKKKPTPTRPYNY [YKL089W 339-352] | 33.6 | 26.3 | 516 | 31.6 | 97.1 | 680 | 44.3 |
| KQAKRAPPSSPYVV [YDR406W 496-509] | 470 | 2.9 | 295 | 19.4 | 127 | 152 | 20.9 |
| KQLKKQGPKRPSSA [YKL032C 354-367] | 767 | 28.7 | 468 | 80.4 | 151 | 751 | 109 |
| KQRIRKIPGIPLMS [YDR339C 161-174] | 800 | 108 | 622 | 3830 | 179 | 12300 | 1120 |
| KQLMKNLPKIPLLN [YDR228C 355-368] | 594 | 9.8 | 580 | 130 | 36400 | 794 | 95.2 |

The remaining lines, values ahead:

| normalised SPOT signal, Boehringer light units (BLU); mean over the file's lines of this peptide [1] | normalised SPOT signal, Boehringer light units (BLU); mean over the file's lines of this peptide [2] | normalised SPOT signal, Boehringer light units (BLU); mean over the file's lines of this peptide [3] | normalised SPOT signal, Boehringer light units (BLU); mean over the file's lines of this peptide [4] | normalised SPOT signal, Boehringer light units (BLU); mean over the file's lines of this peptide [5] | normalised SPOT signal, Boehringer light units (BLU); mean over the file's lines of this peptide [6] | normalised SPOT signal, Boehringer light units (BLU); mean over the file's lines of this peptide [7] | Binder |
| --- | --- | --- | --- | --- | --- | --- | --- |
| 36.2 | 16.7 | 27800 | 41 | 0 | 74.8 | 11.2 | KNPTKSPPPPPSPS [YLR337C 698-711] |
| 291 | 11.9 | 271 | 102 | 99.9 | 462 | 66.6 | KQSKRARPSSPYTV [YOR153W 486-499] |
| 656 | 0 | 207 | 121 | 76.6 | 45.8 | 71.3 | KNLKKYDPEDPNRR [YPL093W 383-396] |
| 196 | 6.5 | 104 | 2030 | 84.8 | 1080 | 142 | KNLLREIPQVPAFQ [YLR077W 141-154] |
| 304 | 0.8 | 118 | 59.5 | 57.8 | 0 | 10.1 | KNILKVSPVLPSIL [YMR247C 301-314] |
